Measurements: the RNAGym collection of RNA variant scans (doi:10.1073/pnas.2313332121)

B1: TPR t1 (parent)
chain: GACCAAUCUGCCCUCAGAGCUCGAGAACAUCUUCGGAUGCAGAGGAGGCAGGCUUCGGUGGCGCGAUAGCGCCAACGUCCUCAACCUCCAAUGCAUCCCACCACAUGAUGAUGCCUGAAGAGCCUUGGUUUUUUG

Variants of: B1
Assay: polymerase ribozyme fitness, log enrichment relative to wild type (log ratio); higher = more active; in vitro selection for triplet polymerase activity
How it was run: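 Each subunit of a heterodimeric triplet polymerase ribozyme was mutagenized into a library by PCR, transcribed, and subjected to one round of in vitro selection, run in triplicate. Libraries were annealed with a biotinylated primer, the partner subunit and triplets, incubated frozen at −7 °C, and extended constructs were gel-excised, captured on streptavidin beads and recovered by RT-PCR. Input and output libraries were sequenced on Illumina, keeping genotypes with ≥10 input reads and ≥1 read per output. Fitness is log base 2 of genotype enrichment divided by wild-type enrichment, from inverse-variance-weighted replicate averages.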

| Variant | polymerase ribozyme fitness (log ratio) |
| --- | --- |
| C20A G35U | -5.42 |
| C22G G47C C104A | -4.76 |
| C20U G42A A91C | -4.6 |
| C20G U30G C114G G117U C124G | -7.61 |
| U21A C28G G57A U59G C124U U130A | -3.45 |
| U21G C94U | -1.8 |
| C20G C40A C70U U92A G93A G113C | -6.62 |
| C22G G47A G120U G127U | -3.88 |
| C20U C53U U54A U125G | -2.55 |
| U21A G45U | -1.28 |
| C20A C22A C62G U81G U96G A121U | -5.74 |
| C22A C40A G69A C86U C97G C99G U125A | -6.51 |
| U21G U54C C56A G57C | -1.15 |
| C22G C115A | -4.07 |
| C22G G42C C115U | -3.85 |
| U21G C22A A27U | -4.41 |
| C22A G45A G63C C88U | -5.31 |
| C20A C40U U132A | -2.39 |
| C20A A27C C62U | -4.63 |
| C20A U96G | -3.33 |
| C20A A91G U109G | -4.02 |

| Variant | polymerase ribozyme fitness (log ratio) |
| --- | --- |
| C22G C94U C101G | -5.92 |
| C22G G23A U125A G128U | -4.85 |
| C22G G39C A50G G51A C115U | -5.65 |
| C20G C82A | -4.78 |
| C20G G36A A43C U96G G117C | -5.42 |
| U21C G60U G110A | -3.6 |
| C22A G69U | -3.88 |
| C20G G61U C79A G117C C123A | -6.44 |
| C22A G48U G63A C94G G120A | -5.73 |
| C20G G122A | -4 |
| C20A G117U | -3.2 |
| C20A G117A | -3.21 |
| C22G C72A C88U | -2.7 |
| C22A C86G | -4.67 |
| C20U G71C A75G C82U U87G A90U A105G G113U | -3.34 |
| C20U C56A G71U A118U G120U | -2.27 |
| C20A G63A A74C U96A | -5.16 |
| U21A G44A | -1.07 |
| U21G A119G | -0.142 |
| C20A C85G | -3.75 |
| C20G G23U U32A C98G C123G U131G | -6.64 |

| Variant | polymerase ribozyme fitness (log ratio) |
| --- | --- |
| U21A C49A G63U | -2.05 |
| U21C G45C C56U G69A U109A A111U C124G | -8.04 |
| C22G A50U U96C A119G | -3.9 |
| C22G G57A A68C C80A C101U C124A | -6.21 |
| C20A U87G A100G C102A A119G | -5.22 |
| U21A G63A C88A A91C | -5.41 |
| U21A G42A A46U G60A G120A | -2.58 |
| C22G C72U C114A | -3.16 |
| C20A A27U A43U | -5.37 |
| C20G C73A C101U G113U | -0.556 |
| C22G G44U G48U G63U A91C A111U | -6.95 |
| U21C G39C C56A | -1.44 |
| C20A C72A C101A | -5.69 |
| C20U C114U | -1.66 |
| C20G C73U A83C | -4.27 |
| U21C C62U A84C | -0.909 |
| C22A G60C A90G C123U | -5.34 |
| C20G C123G U132G | -3.39 |
| C20G C62A | -4.56 |
| C20G C115U G117C | -4.63 |
| U21A G128C | -2.29 |

| Variant | polymerase ribozyme fitness (log ratio) |
| --- | --- |
| C22G A41U G44U | -5.29 |
| C20U G60A G61A C99U | -5.32 |
| C20U C40A G63U C123U | -3.75 |
| U21A C49G G61U U130C | -0.83 |
| U21C G44A A119G U125G | -1.38 |
| C20U C73A U81A U96A A121U C124U U134A G135U | -0.843 |
| C22A C53U G113U | -4.93 |
| C22A C82A C89A A111G | -6.04 |
| C20A G57C | -3.31 |
| C22G C76G | -3.73 |
| U21C G63A | -0.609 |
| C20A G42U G120A | -3.01 |
| C20A C49G | -2.27 |
| U21A C86G | -0.987 |
| C22G G69A | -3.64 |
| U21A C53G U54G U87A U133A | -3.43 |
| C20U G42A C124G U126C G135U | -1.98 |
| U21A C56G U78A C85A U109G | -4.63 |
| U21C G69U C88U C94G C124U | -1.5 |
| C20G U78C | -3.43 |
| C20G A91G C101A G117C | -4.92 |
